Measurements reported in patent publication US11230581B2, “Peptides and combination of peptides for use in immunotherapy against ovarian cancer and other cancers” (Immatics Biotechnologies GmbH, priority 2015, dated 2022).

What follows are substances tested against HLA-A*02:01 (Homo sapiens, UniProt P04439, D140Y/D185E/D98H/E176V/E277Q/G131W/G231S/I119V/I121R/I166T/I218V/L300P/L318F/N151K/N90K/P208A/P217A/Q86G/Q94H/R138H/R169H/T345S) (assay: MHC binding assay (UV-ligand exchange, β2m ELISA, peptide exchange yield)). Conditions: binding of HLA-class I restricted peptides to HLA-A*02:01, UV-ligand exchange.
Method in brief: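 Yield of stabilized complexes quantified via the β2m light chain in an ELISA (streptavidin capture, 100-fold diluted monomers, HRP anti-β2m 2 ug/ml at 37 °C, TMB, A450). The complexes come from UV-triggered replacement of a photocleavable ligand by the candidate peptide.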

Q: How did the “Peptide exchange (MHC class I binding score, peptide exchange yield)” value (shortened to “Peptide exchange”) turn out when “549 (AMLENASDIKL; listed as Homo sapiens) [compound 549]” was run?
A: The value was ““+++” (≥50 = +++)”.

Q: Which “Peptide exchange” value does the source give for “30 (LILDWVPYI; listed as Homo sapiens) [compound 30]” here?
A: Its value is ““+++” (≥50 = +++)”.

Q: Which “Peptide exchange” value does the source give for “325 (FIMPATVADATAV; listed as Homo sapiens) [compound 325]” here?
A: The value was ““+++” (≥50 = +++)”.

Q: With “255 (VLASYNLTV; listed as Homo sapiens) [compound 255]” as the substance, how does the “Peptide exchange” value read?
A: The value was ““+++” (≥50 = +++)”.

Q: With “101 (ILVGGGALATV; listed as Homo sapiens) [compound 101]” as the substance, how does the “Peptide exchange” value read?
A: The value was ““+++” (≥50 = +++)”.

Q: How did the “Peptide exchange” value turn out when “86 (NLIGKIENV; listed as Homo sapiens) [compound 86]” was run?
A: Its value is ““+++” (≥50 = +++)”.

Q: For “118 (KLIDNNINV; listed as Homo sapiens) [compound 118]”, which “Peptide exchange” value is on record?
A: Its value is ““+++” (≥50 = +++)”.

Q: Which “Peptide exchange” value does the source give for “68 (SLMELPRGLFL; listed as Homo sapiens) [compound 68]” here?
A: The value was ““++++” (≥75% = ++++)”.

Q: For “276 (ALFTFSPLTV; listed as Homo sapiens) [compound 276]”, which “Peptide exchange” value is on record?
A: Its value is ““+++” (≥50 = +++)”.

Q: With “573 (ILVANAIVGV; listed as Homo sapiens) [compound 573]” as the substance, how does the “Peptide exchange” value read?
A: The value was ““+++” (≥50 = +++)”.

Q: With “31 (YLAPELFVNV; listed as Homo sapiens) [compound 31]” as the substance, how does the “Peptide exchange” value read?
A: The value was ““++” (≥20% = ++)”.

Q: How did the “Peptide exchange” value turn out when “185 (FLIDDKGYTL; listed as Homo sapiens) [compound 185]” was run?
A: Its value is ““++” (≥20% = ++)”.

Q: “520 (LAVHPSGVAL; listed as Homo sapiens) [compound 520]” was tested. Which “Peptide exchange” value did it give?
A: The value was ““+” (≥10% = +)”.

Q: For “73 (NIFDLQIYV; listed as Homo sapiens) [compound 73]”, which “Peptide exchange” value is on record?
A: Its value is ““+++” (≥50 = +++)”.

Q: Which “Peptide exchange” value does the source give for “355 (SIQQSIERLLV; listed as Homo sapiens) [compound 355]” here?
A: Its value is ““++” (≥20% = ++)”.

Q: With “183 (FGLDLVTEL; listed as Homo sapiens) [compound 183]” as the substance, how does the “Peptide exchange” value read?
A: Its value is ““+++” (≥50 = +++)”.

Q: With “245 (SMIDDLLGV; listed as Homo sapiens) [compound 245]” as the substance, how does the “Peptide exchange” value read?
A: Its value is ““+++” (≥50 = +++)”.

Q: For “563 (WLLPYNGVTV; listed as Homo sapiens) [compound 563]”, which “Peptide exchange” value is on record?
A: Its value is ““+++” (≥50 = +++)”.

Q: Which “Peptide exchange” value does the source give for “135 (ALSEVDFQL; listed as Homo sapiens) [compound 135]” here?
A: Its value is ““+++” (≥50 = +++)”.

Q: With “619 (ALQDRVPLA; listed as Homo sapiens) [compound 619]” as the substance, how does the “Peptide exchange” value read?
A: The value was ““+++” (≥50 = +++)”.

Q: “353 (YLFEMDSSL; listed as Homo sapiens) [compound 353]” was tested. Which “Peptide exchange” value did it give?
A: The value was ““++” (≥20% = ++)”.

Q: “157 (SLNDEVPEV; listed as Homo sapiens) [compound 157]” was tested. Which “Peptide exchange” value did it give?
A: Its value is ““++” (≥20% = ++)”.

Q: How did the “Peptide exchange” value turn out when “443 (GLWEIENNPTV; listed as Homo sapiens) [compound 443]” was run?
A: The value was ““+++” (≥50 = +++)”.

Q: With “305 (SIANFSEFYV; listed as Homo sapiens) [compound 305]” as the substance, how does the “Peptide exchange” value read?
A: The value was ““++++” (≥75% = ++++)”.

Q: “342 (HIYDKVMTV; listed as Homo sapiens) [compound 342]” was tested. Which “Peptide exchange” value did it give?
A: Its value is ““+++” (≥50 = +++)”.

Q: “289 (VLLEIEDLQV; listed as Homo sapiens) [compound 289]” was tested. Which “Peptide exchange” value did it give?
A: The value was ““++++” (≥75% = ++++)”.

Q: “341 (SQIALNEKLVNL; listed as Homo sapiens) [compound 341]” was tested. Which “Peptide exchange” value did it give?
A: The value was ““+++” (≥50 = +++)”.

Q: With “217 (ALIHPVSTV; listed as Homo sapiens) [compound 217]” as the substance, how does the “Peptide exchange” value read?
A: The value was ““++” (≥20% = ++)”.

Q: “358 (ALDEYTSEL; listed as Homo sapiens) [compound 358]” was tested. Which “Peptide exchange” value did it give?
A: The value was ““++++” (≥75% = ++++)”.

Q: With “492 (SLFDGFADGLGV; listed as Homo sapiens) [compound 492]” as the substance, how does the “Peptide exchange” value read?
A: The value was ““+++” (≥50 = +++)”.

Q: “36 (YVLEDLEVTV; listed as Homo sapiens) [compound 36]” was tested. Which “Peptide exchange” value did it give?
A: The value was ““++” (≥20% = ++)”.

Q: Which “Peptide exchange” value does the source give for “525 (VLLEAGEGLVTI; listed as Homo sapiens) [compound 525]” here?
A: Its value is ““+++” (≥50 = +++)”.

Q: Which “Peptide exchange” value does the source give for “574 (YLLQEPPRTV; listed as Homo sapiens) [compound 574]” here?
A: The value was ““++” (≥20% = ++)”.

Q: How did the “Peptide exchange” value turn out when “487 (LLINSVFHV; listed as Homo sapiens) [compound 487]” was run?
A: The value was ““+++” (≥50 = +++)”.

Q: “267 (ALQDFLLSV; listed as Homo sapiens) [compound 267]” was tested. Which “Peptide exchange” value did it give?
A: Its value is ““+++” (≥50 = +++)”.

Q: With “346 (LLDSKVPSV; listed as Homo sapiens) [compound 346]” as the substance, how does the “Peptide exchange” value read?
A: The value was ““+++” (≥50 = +++)”.

Q: With “201 (RLVDYLEGI; listed as Homo sapiens) [compound 201]” as the substance, how does the “Peptide exchange” value read?
A: The value was ““+++” (≥50 = +++)”.

Q: Which “Peptide exchange” value does the source give for “356 (KLLGKLPEL; listed as Homo sapiens) [compound 356]” here?
A: Its value is ““+++” (≥50 = +++)”.

Q: For “399 (YLFEPLYHV; listed as Homo sapiens) [compound 399]”, which “Peptide exchange” value is on record?
A: Its value is ““+++” (≥50 = +++)”.

Q: How did the “Peptide exchange” value turn out when “32 (KLDDLTQDLTV; listed as Homo sapiens) [compound 32]” was run?
A: Its value is ““++” (≥20% = ++)”.

Q: “516 (AVGPASILKEV; listed as Homo sapiens) [compound 516]” was tested. Which “Peptide exchange” value did it give?
A: The value was ““++” (≥20% = ++)”.

Q: “457 (SLLPGNLVEKV; listed as Homo sapiens) [compound 457]” was tested. Which “Peptide exchange” value did it give?
A: The value was ““+++” (≥50 = +++)”.

Q: For “377 (FLLDSSASV; listed as Homo sapiens) [compound 377]”, which “Peptide exchange” value is on record?
A: Its value is ““++” (≥20% = ++)”.

Q: For “311 (RLYTGMHTV; listed as Homo sapiens) [compound 311]”, which “Peptide exchange” value is on record?
A: The value was ““+++” (≥50 = +++)”.

Q: Which “Peptide exchange” value does the source give for “320 (KMFEFVEPLL; listed as Homo sapiens) [compound 320]” here?
A: The value was ““++++” (≥75% = ++++)”.

Q: Which “Peptide exchange” value does the source give for “140 (YMDAPKAAL; listed as Homo sapiens) [compound 140]” here?
A: Its value is ““++” (≥20% = ++)”.

Q: Which “Peptide exchange” value does the source give for “376 (AMFESSQNVLL; listed as Homo sapiens) [compound 376]” here?
A: The value was ““++” (≥20% = ++)”.

Q: How did the “Peptide exchange” value turn out when “69 (FQLDPSSGVLVTV; listed as Homo sapiens) [compound 69]” was run?
A: Its value is ““+++” (≥50 = +++)”.

Q: “518 (KLNAEVACV; listed as Homo sapiens) [compound 518]” was tested. Which “Peptide exchange” value did it give?
A: Its value is ““+++” (≥50 = +++)”.

Q: With “442 (GLLGGGGVLGV; listed as Homo sapiens) [compound 442]” as the substance, how does the “Peptide exchange” value read?
A: The value was ““+++” (≥50 = +++)”.

Q: Which “Peptide exchange” value does the source give for “281 (ILRESTEEL; listed as Homo sapiens) [compound 281]” here?
A: Its value is ““+++” (≥50 = +++)”.

Q: With “524 (ALIENLTHQI; listed as Homo sapiens) [compound 524]” as the substance, how does the “Peptide exchange” value read?
A: Its value is ““++” (≥20% = ++)”.

Q: With “40 (TLLVKVFSV; listed as Homo sapiens) [compound 40]” as the substance, how does the “Peptide exchange” value read?
A: Its value is ““+++” (≥50 = +++)”.

Q: For “375 (SLTETIEGV; listed as Homo sapiens) [compound 375]”, which “Peptide exchange” value is on record?
A: Its value is ““++” (≥20% = ++)”.

Q: With “274 (SLLFSLFEA; listed as Homo sapiens) [compound 274]” as the substance, how does the “Peptide exchange” value read?
A: The value was ““++” (≥20% = ++)”.

Q: “334 (TLTKVLVAL; listed as Homo sapiens) [compound 334]” was tested. Which “Peptide exchange” value did it give?
A: The value was ““+++” (≥50 = +++)”.

Q: With “592 (RLLSAAENFL; listed as Homo sapiens) [compound 592]” as the substance, how does the “Peptide exchange” value read?
A: The value was ““+++” (≥50 = +++)”.

Q: With “237 (ALLEASGTLLL; listed as Homo sapiens) [compound 237]” as the substance, how does the “Peptide exchange” value read?
A: Its value is ““++++” (≥75% = ++++)”.

Q: Which “Peptide exchange” value does the source give for “379 (IMEGTLTRV; listed as Homo sapiens) [compound 379]” here?
A: The value was ““++” (≥20% = ++)”.

Q: For “134 (YLQELIFSV; listed as Homo sapiens) [compound 134]”, which “Peptide exchange” value is on record?
A: Its value is ““+++” (≥50 = +++)”.

Q: “381 (FIDEAYVEV; listed as Homo sapiens) [compound 381]” was tested. Which “Peptide exchange” value did it give?
A: Its value is ““++” (≥20% = ++)”.

Q: With “507 (KLIDDQDISISL; listed as Homo sapiens) [compound 507]” as the substance, how does the “Peptide exchange” value read?
A: The value was ““+++” (≥50 = +++)”.

Q: With “262 (LLWGDLIWL; listed as Homo sapiens) [compound 262]” as the substance, how does the “Peptide exchange” value read?
A: The value was ““+++” (≥50 = +++)”.

Q: Which “Peptide exchange” value does the source give for “55 (SLLDLETLSL; listed as Homo sapiens) [compound 55]” here?
A: The value was ““++++” (≥75% = ++++)”.

Q: “474 (YLDPALELGPRNV; listed as Homo sapiens) [compound 474]” was tested. Which “Peptide exchange” value did it give?
A: Its value is ““+++” (≥50 = +++)”.

Q: How did the “Peptide exchange” value turn out when “106 (LLYDAVHIVSV; listed as Homo sapiens) [compound 106]” was run?
A: Its value is ““+++” (≥50 = +++)”.
